Data published in patent US20170002094A1 (Takeda / Millennium, published 2017).
Where two headings read alike, the source gives them in different places.

Assays:
[1] = biological target: T1, human plasma kallikrein (active form) (human, UniProt P03952 20-638)
[2] = biological target: T1, human plasma kallikrein (active form); assay: cell-based or functional assay

T1 sequence (P03952 20-638 limits assumed): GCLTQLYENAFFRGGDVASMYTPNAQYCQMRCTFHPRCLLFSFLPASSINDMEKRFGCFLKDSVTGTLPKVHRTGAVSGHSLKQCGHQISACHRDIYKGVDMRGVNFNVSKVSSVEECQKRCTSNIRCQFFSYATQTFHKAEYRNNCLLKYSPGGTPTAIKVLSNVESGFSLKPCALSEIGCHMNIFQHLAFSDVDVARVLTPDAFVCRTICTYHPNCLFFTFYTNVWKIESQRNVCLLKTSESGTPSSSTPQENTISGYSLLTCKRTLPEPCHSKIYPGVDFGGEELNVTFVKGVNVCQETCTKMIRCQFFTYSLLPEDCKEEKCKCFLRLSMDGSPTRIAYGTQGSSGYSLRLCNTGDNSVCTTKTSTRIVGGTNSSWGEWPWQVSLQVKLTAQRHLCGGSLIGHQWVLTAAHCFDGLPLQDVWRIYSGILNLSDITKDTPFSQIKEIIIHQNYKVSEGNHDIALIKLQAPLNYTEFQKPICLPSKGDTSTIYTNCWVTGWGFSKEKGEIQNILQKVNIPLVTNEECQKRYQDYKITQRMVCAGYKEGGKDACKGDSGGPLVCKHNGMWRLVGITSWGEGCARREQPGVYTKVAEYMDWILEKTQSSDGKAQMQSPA

Row | Molecule | IC50 (read off the curve) [1] [nM] | IC50 (read off the curve) [2] [nM]
1 | ecallantide (designed binder) | 70 | –
2 | DX-2930 (antibody, human IgG1, kappa, V domains shown) VH: EVQLLESGGGLVQPGGSLRLSCAASGFTFSHYIMMWVRQAPGKGLEWVSGIYSSGGITVYADSVKGRFTISRDNSKNTLYLQMNSLRAEDTAVYYCAYRRIGVPRRDEFDIWGQGTMVTVSS VL: DIQMTQSPSTLSASVGDRVTITCRASQSISSWLAWYQQKPGKAPKLLIYKASTLESGVPSRFSGSGSGTEFTLTISSLQPDDFATYYCQQYNTYWTFGQGTKVEIKR | – | ~70
